Laboratory results as given in article PMC8041789.

What was measured:
[1] = target: von Willebrand factor-binding protein (recombinant vWbp) (S. aureus); assay: AFM single-molecule force spectroscopy; vWF-modified tips probing vWbp-modified gold supports (NHS/EDC coupling); PBS; 10 µm x 10 µm areas
[2] = target: clumping factor A (ClfA wild type) on S. aureus ClfA+ cells (S. aureus) (UniProt Q53653); assay: AFM single-molecule force spectroscopy; vWbp-modified tips probing ClfA+ cells; contact time 500 ms before retraction; PBS
[3] = target: clumping factor A (ClfA wild type) on S. aureus ClfA+ cells (S. aureus) (UniProt Q53653); assay: AFM single-molecule force spectroscopy; vWbp-modified tips probing ClfA+ cells; minimum contact time (~100 ms); PBS

| Substance | binding frequency [1] [%] | rupture force [1] [pN] | binding frequency [2] [%] | rupture force [2] [pN] | binding frequency [3] [%] |
| --- | --- | --- | --- | --- | --- |
| von Willebrand factor (human plasma vWF) (from UniProt P04275 764-2813) (natural protein) | 24 | 136 | – | – | – |
| von Willebrand factor-binding protein (recombinant vWbp) (natural protein) | – | – | 11 | 446 | 3 |
